Test results from patent US20220153854A1.

Molecular target: membrane bound human OX40L on CHO-KI cells (human) (UniProt P23510)
Test: cell-based or functional assay

Chain of membrane bound human OX40L on CHO-KI cells (human) (P23510 whole entry): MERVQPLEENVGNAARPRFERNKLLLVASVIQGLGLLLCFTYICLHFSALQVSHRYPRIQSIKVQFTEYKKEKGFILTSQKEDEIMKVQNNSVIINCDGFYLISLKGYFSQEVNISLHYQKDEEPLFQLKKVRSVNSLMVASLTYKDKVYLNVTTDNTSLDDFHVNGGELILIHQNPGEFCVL

B1: ISVD construct F027100172 (protein, part only; not given: anti-IL-13 building blocks, part only)
chain, part: DVQLVESGGGVVQPGGSLRLSCAASRSIGRYDRMGWYRHRPGEPRELVATITGGSSINYGDSVKGRFTISIDNSKNTVYLQMNSLRPEDTALYYCNFNKYQISRDTWGQGTLVTVSSGGGGSGGGSGGGGSGGGSEVQLVESGGGVVQPGGSLRLSCAASGFTFRSFGMSWVRQAPGKGPEWVSSISGSGSDTLYADSVKGRFTISRDNSKNTLYLQMNSLRPEDTALYYCTIGGSLSRSSQGTLVTVSSGGGGSGGGS
- PBMC activity assay IC50: 2.5 nM
- fold better potency in the OX40L-driven PBMC activity assay against the non-affinity matured counterpart (15B07): 20 fold
- fold better potency in the PBMC activity assay against F-027100179: 10 fold
